Ends that are not written are not given here.
Target: T1, HA-tagged constitutively active (CA) Rab6a mutant (Q72L) (UniProt P20340 2-208, Q72L)
T1 construct: Rab6a, amplified from EGFP-Rab6AQ72L (Addgene #49483); the forward primer puts ATG and the HA tag before the codons S-T-G-G (residue 2 onward), the reverse primer ends at the stop codon after ...GGCSC; The vector is called pCMV-FLAG; also called HA-tagged CA Rab6a; GTP-Rab6a; source: HEK293TT, transfected, purified (anti-HA agarose, eluted with HA peptide); not shown: HA, N-terminal, kept
Test: pull-down; 5 µg biotinylated peptide incubated with purified protein (~20 nM FLAG-BICD2 or HA-tagged CA or DN Rab6a) in HN buffer (50 mM HEPES, 150 mM NaCl) with 0.1% Triton, 1 mM DTT, 2 h at 4°C; streptavidin magnetic beads; western blot for HA or FLAG
Conditions: both partners purified

B1: biotinylated HPV16 L2 peptide, amino acids 434–461 (peptide)
peptide: SPQYTIIADAGDFYLHPSYYMLRKRRKR
modifications: also: further groups not given here
notes: HPV16 minor capsid protein L2, amino acids 434-461 of full-length HPV16 L2; also called L2 C; peptide 434–461; source: synthetic peptide, bought: GenScript or Promega
binding result: binds

Source: paper PMC11559006, “Rab6a enables BICD2/dynein-mediated trafficking of human papillomavirus from the trans-Golgi network during virus entry” (mBio, 2024)
